Blank lines part the entries; values can stand above or below the binder they belong to.
Assays:
[1] = molecular target: T1, human CD105-ECD: amino acid residues Met 1-Gly 586 of human CD105 (Sino bio: Cat: 10149-H02H) (human, UniProt P17813 26-586); assay: ELISA, absorbance at 405 nm, one condition per Fab and antigen
T1 construct: Bought; also called hCD105-ECD-hFc; hCD105-hFc
T1 sequence: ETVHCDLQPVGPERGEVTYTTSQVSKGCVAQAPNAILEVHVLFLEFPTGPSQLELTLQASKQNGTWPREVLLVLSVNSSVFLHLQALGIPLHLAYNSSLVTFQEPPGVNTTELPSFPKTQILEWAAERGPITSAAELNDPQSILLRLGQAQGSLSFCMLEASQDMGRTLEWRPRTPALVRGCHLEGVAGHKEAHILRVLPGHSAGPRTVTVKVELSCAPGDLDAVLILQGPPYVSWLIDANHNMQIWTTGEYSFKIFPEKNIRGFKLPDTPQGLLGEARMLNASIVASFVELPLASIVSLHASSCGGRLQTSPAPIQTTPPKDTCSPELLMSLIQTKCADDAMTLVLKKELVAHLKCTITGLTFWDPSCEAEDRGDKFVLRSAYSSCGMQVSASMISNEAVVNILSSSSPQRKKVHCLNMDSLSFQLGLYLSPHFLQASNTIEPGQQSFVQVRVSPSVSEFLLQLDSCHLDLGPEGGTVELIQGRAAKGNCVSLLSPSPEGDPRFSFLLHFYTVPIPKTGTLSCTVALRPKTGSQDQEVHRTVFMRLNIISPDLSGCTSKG

[2] = molecular target: T2, human PTPRG extracellular domain (ECD) (residues 20~736 of human PTPRG) fused to hFc (human, UniProt P23470 20-736); assay: ELISA, one condition per Fab and antigen; y axis 0 to 1.8 without name or unit
T2 construct: Produced in-house by transient transfection of Expi293 cells; also called hPTPRG-ECD-hFc; hPTPRG-ECD; not shown: human Fc (hFc)
T2 sequence: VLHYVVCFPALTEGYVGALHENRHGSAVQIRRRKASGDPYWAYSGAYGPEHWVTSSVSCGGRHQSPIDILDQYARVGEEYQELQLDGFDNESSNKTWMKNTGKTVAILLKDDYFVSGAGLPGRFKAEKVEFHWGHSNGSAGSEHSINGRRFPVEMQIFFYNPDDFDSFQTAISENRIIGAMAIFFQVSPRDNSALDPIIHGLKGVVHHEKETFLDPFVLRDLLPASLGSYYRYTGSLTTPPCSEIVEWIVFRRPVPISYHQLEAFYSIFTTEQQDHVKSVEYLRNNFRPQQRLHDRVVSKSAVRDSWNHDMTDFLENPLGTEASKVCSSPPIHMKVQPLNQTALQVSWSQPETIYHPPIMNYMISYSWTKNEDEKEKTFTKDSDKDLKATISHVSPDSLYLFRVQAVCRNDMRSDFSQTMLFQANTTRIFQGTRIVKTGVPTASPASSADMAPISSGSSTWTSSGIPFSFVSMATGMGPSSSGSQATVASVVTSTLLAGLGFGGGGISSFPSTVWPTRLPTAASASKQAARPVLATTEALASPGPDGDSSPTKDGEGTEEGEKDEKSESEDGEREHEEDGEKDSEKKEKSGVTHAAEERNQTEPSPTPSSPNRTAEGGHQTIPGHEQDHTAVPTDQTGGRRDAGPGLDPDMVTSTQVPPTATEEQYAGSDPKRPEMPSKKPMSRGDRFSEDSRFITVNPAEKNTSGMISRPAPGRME

[3] = molecular target: T3, mouse PTPRG ECD (amino acid residues 20-733 of mouse PTPRG) fused to hFc (mouse, UniProt Q05909 20-733); assay: as above
T3 construct: Produced in-house; also called mPTPRG-ECD; Mouse PTPRG-ECD-hFc; not shown: human Fc (hFc)
T3 sequence: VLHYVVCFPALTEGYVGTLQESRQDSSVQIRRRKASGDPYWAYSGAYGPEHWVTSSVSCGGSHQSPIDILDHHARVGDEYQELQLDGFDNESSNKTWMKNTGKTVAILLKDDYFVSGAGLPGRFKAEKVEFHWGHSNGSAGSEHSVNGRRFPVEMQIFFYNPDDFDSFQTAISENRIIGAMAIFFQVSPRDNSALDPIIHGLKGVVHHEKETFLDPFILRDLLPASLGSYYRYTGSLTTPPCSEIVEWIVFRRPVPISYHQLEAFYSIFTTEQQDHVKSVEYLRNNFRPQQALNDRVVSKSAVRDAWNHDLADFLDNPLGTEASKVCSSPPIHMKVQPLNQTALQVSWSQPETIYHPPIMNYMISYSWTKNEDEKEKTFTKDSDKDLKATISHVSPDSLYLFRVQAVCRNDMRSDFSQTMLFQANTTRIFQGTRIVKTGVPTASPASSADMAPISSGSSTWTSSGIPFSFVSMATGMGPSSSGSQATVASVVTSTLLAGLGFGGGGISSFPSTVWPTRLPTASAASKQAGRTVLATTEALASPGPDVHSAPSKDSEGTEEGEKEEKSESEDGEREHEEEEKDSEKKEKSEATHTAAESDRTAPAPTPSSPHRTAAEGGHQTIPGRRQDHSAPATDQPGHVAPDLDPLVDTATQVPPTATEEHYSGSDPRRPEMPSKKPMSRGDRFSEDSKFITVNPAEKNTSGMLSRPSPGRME

[4] = molecular target: T4, N-terminal domain (NTD) of human PTPRG (amino acid residues 20~448 of human PTPRG) (human, UniProt P23470 20-448); assay: as above
T4 construct: also called hPTPRG-NTD; human PTPRG NTD
T4 sequence: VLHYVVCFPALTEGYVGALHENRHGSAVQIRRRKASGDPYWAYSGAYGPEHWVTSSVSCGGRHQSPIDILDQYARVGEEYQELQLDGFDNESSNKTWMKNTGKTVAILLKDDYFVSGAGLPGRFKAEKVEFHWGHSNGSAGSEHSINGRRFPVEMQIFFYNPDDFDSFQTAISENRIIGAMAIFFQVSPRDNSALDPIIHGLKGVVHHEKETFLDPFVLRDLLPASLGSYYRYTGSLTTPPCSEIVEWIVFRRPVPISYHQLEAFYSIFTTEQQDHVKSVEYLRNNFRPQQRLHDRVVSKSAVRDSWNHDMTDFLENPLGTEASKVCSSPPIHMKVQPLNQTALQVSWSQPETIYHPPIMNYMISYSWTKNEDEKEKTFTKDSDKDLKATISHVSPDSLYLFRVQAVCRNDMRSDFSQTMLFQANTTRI

[5] = molecular target: T5, human Nectin-2 on the cell surface (U937 cells) (human, UniProt Q92692 32-538); assay: flow cytometry on whole U937 cells, screen of the 28 clones (Ctrl row = 0); Nectin-2 is named as the antigen on U937 cells only in the later examples
T5 construct: Endogenous Nectin-2 of U937 cells; also called PVRL2; CD112
T5 sequence: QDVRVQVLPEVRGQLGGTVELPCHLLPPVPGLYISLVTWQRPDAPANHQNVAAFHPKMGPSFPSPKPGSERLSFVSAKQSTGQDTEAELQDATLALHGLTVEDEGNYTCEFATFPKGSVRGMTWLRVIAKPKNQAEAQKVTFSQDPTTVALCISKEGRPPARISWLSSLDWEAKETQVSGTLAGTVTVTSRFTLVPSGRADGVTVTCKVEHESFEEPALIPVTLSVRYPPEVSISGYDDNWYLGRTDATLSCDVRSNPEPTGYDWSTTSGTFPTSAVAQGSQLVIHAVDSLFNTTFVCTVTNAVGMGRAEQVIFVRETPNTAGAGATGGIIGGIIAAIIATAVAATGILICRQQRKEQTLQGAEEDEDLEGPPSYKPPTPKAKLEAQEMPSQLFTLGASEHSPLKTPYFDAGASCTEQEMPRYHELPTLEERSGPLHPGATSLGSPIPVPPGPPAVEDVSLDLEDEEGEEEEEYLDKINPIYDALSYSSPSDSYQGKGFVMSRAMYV

[6] = molecular target: T2, human PTPRG extracellular domain (ECD) …; assay: ELISA, absorbance at 405 nm, one condition per Fab and antigen
[7] = molecular target: T6, human Nectin-2 extracellular domain (amino acid residues 1-360 of human Nectin-2) fused to hFc (human, UniProt Q92692 32-360); assay: SPR, summary table; antigen column hNectin2 ECD
T6 construct: Bought; also called hNectin-2-ECD-hFc; NECTIN2-ECD-hFc; not shown: human Fc (hFc)
T6 sequence: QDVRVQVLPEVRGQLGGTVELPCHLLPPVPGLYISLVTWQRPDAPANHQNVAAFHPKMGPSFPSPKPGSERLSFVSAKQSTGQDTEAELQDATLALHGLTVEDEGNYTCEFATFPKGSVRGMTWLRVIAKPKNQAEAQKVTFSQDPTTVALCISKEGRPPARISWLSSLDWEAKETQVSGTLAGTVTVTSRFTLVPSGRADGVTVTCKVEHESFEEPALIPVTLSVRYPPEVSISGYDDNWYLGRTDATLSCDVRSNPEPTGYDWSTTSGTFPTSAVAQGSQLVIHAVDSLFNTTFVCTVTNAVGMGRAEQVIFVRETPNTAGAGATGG

[8] = molecular target: T6, human Nectin-2 extracellular domain …; assay: SPR, Fab on human Nectin-2-ECD-hFc, five concentrations
[9] = molecular target: T6, human Nectin-2 extracellular domain …; assay: ELISA, absorbance at 405 nm, one condition per Fab and antigen
[10] = molecular target: T5, human Nectin-2 on the cell surface …; assay: competition flow cytometry on U937 cells; competitor of 0.5 µg Alexa 647 labelled Fab_2282

B1: Fab_484 (Fab, V domains shown)
VH: AQSLEESGGRLVTPGTPLTLTCTASGFSLSSYHMAWVRQAPGKGLEWIGIISSSGSTYYASWAKGRFTISKTSTTVDLKITSPTTEDTATYFCARGFGWGPNLWGPGTLVTVSS
VL: SFVLTQPASVQVNLGQMVSLTCTADTLSRSYASWYQQKPGQAPVLLIYRDTSRPSGVPDRFSGSTSGNTATLTISGAQAGDEADYYCATDDNSGSSYQYVFGGGTQLTVTG
notes: Chimeric rabbit/human Fab; also called N484
binding result [1]: no binding
binding result [2]: no binding
binding result [3]: no binding
binding result [4]: no binding
flow cytometry binding value (the table prints no name or unit) [5]: 94.8

B3: Fab_350 (Fab, V domains shown)
VH: QEQLEESGGRLVTPGTPLTLTCTASGFSLSSYHMSWVRQAPGKGLEWIGLINTGDSAYYASWAKGRFTISRTSTTVDLRITSPTTEDTATYFCARTFGDGFNLWGPGTLVTISS
VL: SFVLTQPASVQVDLGQTVSLTCTADTLSRSYASWYQQKPGQAPVLLIYRDTSRPSGVPDRFSGSSSGNTATLTISGAQAGDEADYYCATEDSGDSSYQYVFGGGTQLTVTG
notes: Chimeric rabbit/human Fab; also called N350; clone 350
Kd [7]: 67.5 nM
koff [7]: 0.0077 s⁻¹
kon [7]: 114000 M⁻¹ s⁻¹
Kd [8]: 67.5 nM
flow cytometry binding value (the table prints no name or unit) [5]: 89.3

Results, then the binder that gave them:

binding result [6]: no binding
binding result [1]: no binding
flow cytometry binding value (the table prints no name or unit) [5]: 92.6
B2: Fab_2430 (Fab, V domains shown)
VH: AQSLEESGGRLVTPGTPLTLTCTVSGIDLSSYHMNWVRQAPGKGLEWIGIIGASAGTYYARWAKGRFTISKTSTTVDLKITSPTTEDTATYFCARSGGSMQLNLWGPGTLVTISS
VL: SFVLTQPASVQVNLGQTVSLTCTADTLSRSYASWYQQKPGQAPVLLIYRDTSRPSGVPDRFSGSSSGNTATLTISGAQAGDEADYYCATDDSSGSSYQYVFGGGTQLTVTG
notes: Chimeric rabbit/human Fab; also called N2430

binding result [6]: no binding
binding result [9]: no binding
binding result [10]: no binding (tested: 5 µg)
B4: Fab_2810 (Fab, V domains shown)
VH: QEQLEESGGRLVTPGTPLTLTCTASGFSLTNYYMTWVRQAPGKGLEWIGTIYAGTGSTWYASWVKGRFTISKTSTTVDLKITSPTTEDTATYFCVRGYLGWSSGIENIWGPGTLVTVSS
VL: SFVLTQPASVQVNLGQTVSLTCTADTLSRSYASWYQQKPGQAPVLLIYRDTSRPSGVPDRFSGSSSGNTATLTISGAQAGDEADYYCATSDGSGSTFHFVFGGGTQLTVTG
notes: Chimeric rabbit/human Fab; also called E2810; mAb_2810
